Laboratory results: the DeepSol protein solubility set

Assay: soluble on expression in E. coli; label from the status in PepcDB or PDB records

| Sequence | soluble on expression in E. coli |
| --- | --- |
| MGSDKIHHHHHHVLVRRLAQAPVPIAGVAVLGTITPEDQQAAEDARLPLLQLPEGVDLREVEREITRLITDYEAQFERRAARLYDLLTQCSLQGGGISGLLDILHERTGQSVAFYASNGVLRAQRGRGQSRLALQALRPNGRGETTLLNQQIWVEPIGNSGLPIGYVAIAGTLLDPWDRTAAQRGALALALELAKEQAVQAAEERLRGDFIAGILAGAPGDLAAVIQRGQELGYTLHLPHTAMLVHIDDASTATLARAATNIQNELKRLGVNAPISRRESNVLCMLPTTSVTRLRELTEQLRERLRLDHPNVVIAIGTPATHLTEWRRSVEEAEQSLSLGRQIFGNDRVLAFGDLGVYRLLIRLRETPELWSFYRETLSSLAEYDKRQHADLIKTLEAYFNHLGNLRATSEALHVHRNTLLYRLERIKEISGMDLDNAEEHFALWLAVRAHRILATLEE | not soluble |
| MGSDKIHHHHHHMIITLQDTETREISAKIDELHEERGEAALGRVLTLLISTNEAELEHDLEVANNASREHPCRVIAVAPSSRKISPEEEHPTFLDAEIRFGSDAGAGEIIVLRPRGGLVRHADTLVIPLLVPDAPVVAWWPNEAPANLSKDLLGSMASSRITDAMHSSNPRRTMDDLRRNRSAKDVDMSWTRLTVWRAMIASMLDQPPHLPVSNVRVTGQKDYLPLDLLAAWLRLRLNVPVMIEEDPNATAVTGVYLTRGDGVLSLERPSTDDGFAVISVPGQSPQTISVPARTLEECLSEELGRLYPDEIYSEVVSQGLDLVKPRQ | not soluble |
| MSVIKIEKALKLDKVIFVDVRTEGEYEEDHILNAINMPLFKNNEHNEVGTIYKMQGKHEAIQKGFDYVSYKLKDIYLQAAELALNYDNIVIYCARGGMRSGSIVNLLSSLGVNVYQLEGGYKAYRNFVLEYLRHVMDTKNFVSVHGLTGTGKTDLLHLLDENGIDVLDLEGIAKNSGSTFGFITFDKKPPSQKNFETKLFESIFFSKENYIFVESESKRVGSVTVPNEIFEAMTREGHHILLECDIENRVDRLCRDYIYDKDEGNILILKECINKFRKRLGNKVVDDYIDLLESGEYKELVKRYLLEYYDPLYMHSVEKYKYSKIINFNDTQKALEDVIDLYESILEGESEC | not soluble |
| MGSDKIHHHHHHMLLFQDLRKDIYEIVSKRFRISENDVYLDDTGHSDITIRVFRILKSPDGGENAVMEIVRSISEKDYVEKALSEGGYINVWIKRTYMLREVLESIEKSGTYPDVFQEAERVSVEHTSANPTGPLHIGRARNSIIGDSIYRILSRYGYRTVRQYFVNDSGKQMISLYTAYIKYGGPITIENLLENYQKIYREMEKDQSIEKEIEKNIERYENADPEVFGTLRKIAGVMLDGIASTLKRIGIEFDEFDWESDLLLNGSVRKAIDMLETKEEDSARYIEISGKKVFLTRKDGTTLYFARDIAYHLFKAENSEWIIDVLGEDHKDHAKSLNHVLKEMLKLENRVSFMYYSFITLETGKMSTRRGNIVTLQDLVDRTYDEALKIVNEKRPDLSEEERKKIAEVIASSAVRYSIIRVSAPKPITFRWEEALNFESNSAPFIMYSHARAASILDKAPEPEQSYGMDMPKEEADLVKAMYVYPYYLKDAAQDLKPDLIAAYLISLVQKFNDFYGACRVIGTDPLTYARRIRIVKAYKQILSDAGDLIGIKMLDQM | not soluble |
| MGSDKIHHHHHHMVNSSGLLAKLYNAFNPFEPLPAGDPKYVDCQDVRGDADIEQELGNRMRLADTNTCQLYSGHRGAGKSTELLRLKKYLENREFYVVYFAADEEDIDSEDAQYTDILLACTRRLLKDLKGIASPRPILDWLKGRWEDLKDLAQTPIEFESLGVEAQLTQFAKLTANLRAVPELRQKIRQKIDPYTVTLIQVLNEFLVDAKQHLPNGYKKLAVIVDNLDRMVLVKDAERTNYEEVFLDRSEQLQALDCHLIYTVPISMVYSTRATDLRDIYGDPQILPMIMVKTFEGNVYQPGLEKVKEVIKKRVRQIAPELSLETEIFDSPQTLDRLCLMSGGHVRNLLLLTQDAIGRSEDLPVSEKAVRRAITQARDTYRRAVENHQWCLLAEVSCSKRIINDDLYRSLMYNRCLLEYRYLDDDGEMQRWYDIHPLIQGIPEFKEAVAKLS | not soluble |
| MANKNYQMSTGVTAVVQKVVEACQDESKRLDLIEIARSYPPNQLRNMQRTFQAITGTFLDAFLKKHLSKDFESLVLMLYKPRAQLLCELIRGATKGAGTDEKCLVDVLLTIETHEVREIRQLYYQLYNDSLGDVVRKDCGDKYMWAKLINAVATGDRIPRDTHELEEDLVLVRKAIETKGVKKDEVSTWIRIFATYTRADFRQLHKMYSAKYNGDSLRAGVEDEFQGLDEYAFKLAHDFLYDPCCAAAFSMNVAFAGSGSDSNRLNRITAMHFRECKGCKYYYKKVYGQAFDERCATELKGVYGDAIKLLWEPVTVPLLSMDDYQGSEQHRPMTLEL | soluble |
| MGSDKIHHHHHHMEAEIELKLFFPENKREALVSLLNSLPHSDAKGAIHLTNSYYDTPDLQLRRWDMGLRIRGRDGQFEQTIKTAGTVVGGVHSRPEYNIDIDQAKVNLSLFPTEIWPEGAEIGPVQDALVSLFDTDFTRMSWHIYLDESLVEVALDIGSISANGQCEPICELEFELLAGDAQALLALAERVTEQIPARLGRASKAQRGYRLAAMASPLQLDTLAFIALPKKGTPKQALVTLLETGLDRWQLLEEMLLESRQAARQLPLLGYRLRACIRLLRCTLAQFSLLDDKLLQAFDAIESQLSFVDKGLSLCELLDGDGALLSNLSEPEGLLDAVRHELAALEMPQKIDAMLNHVTYGQLQVRLVSLLMAVNAGQVYISEQQSLQAFADRLQEASWQQIVDLMPSNAELSSEDYQSFAKALDESILVGVAYGELYKHKSRDQFRAPWQDLVLGIRTLGAYHSLRQTAATQGRDIDDWLDSKEQSLLFAMEHSRRSALKVQPYWR | not soluble |
| GPGSMVDDFSSLSSPYVFLHGPLCSKDTCAVAAIGTTARLPYARPHSLLPLTSFLALRPAVSSGGLRHTRAYTHLLDTRVQVRIAMSEAAPPPVLGTASSAVAPQPFGGSEASRKRRLKPISFQRMAMIQEEIARIDKHLEALEASESKVVDPDSVGQHNLTTEDVIDPVVLHMLTVELCQLAASGDAVGARILLTGGADPNSRDYDGRTLLHIACMNGRLSVVTVLLEFSADASLLDRDGNTPLEVAEEYGFGDVAQVLSGYFDAGANAVPDSFTWKPPSFESTPVSIHQPDFSAVP | not soluble |
| MGSDKIHHHHHHMSSCGKNENPQEMNRRKFLKVFGGGAVASSAALYGCAPKNEPGAAVALGEVPTDKMTYRQHPTNGDKVSILGYGCMRWPLKQGSDGKDQIDQEAVNRLVDYAIEHGVNYFDTSPVYVQGMSEKATGIALARHPRNSYYLATKLSNFQNYTRENSLAMYRQSFRDLQTDYLDYYLLHSIGGGNGIELFNDRYINNGMLDFLVKEREAGRIRNLGWSFHGDVKVFDYVLDMGVKWDFVQIQLNYLDWKHASGRNVNADYLYGELEKRGIPAVIMEPLLGGRLSNVPDHIVARLKQQRPENSVASWAFRFAGSPDGVLTVLSGMTYMEHLQDNIRTYSPLIPVTDEEKDFLEETAQLMMKYPTIPCNDCKYCMPCPYALDIPGILLHYNKCVNEGNVPKSAQDENYAKARRAFLVGYDRSVPKLRQANHCTGCEQCNPHCPQGIDIPKEMQRIDKFVEELKVNG | not soluble |
| LQELETAVAETGFSRFPVTGKDGSYLGYVHIKDVLDRFDHSSPDTIIHRSEIRPLIIVDAAGTMDEALQSMHSKSAHMAQVRDRGLLLGVITLEDLIEEYVGTFSDWTHEQS | not soluble |
| MGHHHHHHSHMGNCQAVNAAVLVLQHPGGIIDRYYSSVSVTEVMAMYPGHYVSLIIPLSEEEEKNIPATEKGDDKKQRKAVRFTRVQLLRPTENLVLGHAYRLITSQEVMKVLREKKSAKTKKHQIEKTTTAKKFSDKKVPEKKQGKQFRVIRNSTSLLKSKTWRPSLQSISEATS | soluble |
| MKVASGSTATAAAGPSCALKAGKTASGAGEVVRCLSEQSVAISRCAGGAGARLPALLDEQQVNVLLYDMNGCYSRLKELVPTLPQNRKVSKVEILQHVIDYIRDLQLELNSESEVGTPGGRGLPVRAPLSTLNGEISALTAEAACVPADDRILCRLEHHHHHH | soluble |
| MEANSGGGGGAEGGRAVTGGGGGGGGSDVELVSKTLQVEHKLFYFDLKENPRGRYLKISEKTSATRSTIIVPSSGISWFLDLFNYYVNSEEHELFSKELQLDSKVFYFDIGENRRGRFLKVSEASVSRNRSTIIVPAGSSPDEGWAAFRNILAEIHEASGLFVMPNQKPSDGQEHLVDDVGAGFIPGHGSQQPSSSEHNVDRTIDSPGSDRSSIILPLSGLKQFHEVIGHFVEITKDKIEVLILLEDGNFQSSNHLNLATSSRLPDRGVQ | soluble |
| MAQTKPIAEQMAALNNSDDTSFAADRSNSLLNATCPARIQNSVDQRKINRSFNDSLSSGYSGKWLRPKREALKITPLAQIDEAPATKRHSSAKDKHTEYKTRLCDAFRREGYCPYNDNCTYAHGQDELRVPRRRQEYYSRDPPRERRDSRSRRDDVDTTINRSSSSASKHHDENRRPSNNHGSSNRRQICHNFERGNCRYGPRCRFIHVEQMQHFNANATVYAPPSSDCPPPIAYYHHHPQHQQQFLPFPMPYFLAPPPQAQQGAPFPVQYIPQQHDLMNSQPMYAPMAPTYYYQPINSNGMPMMDVTIDPNATGGAFEVFPDGFFSQPPPTIIS | not soluble |
| HRSGGFPVYKNTKVTYFPNGQSKFEEMKKQLLKAEKFIFLEYFIIAEGLMWGEILSILEQKVQEGVEVRVMYDGMLELSTLSFDYAKRLEKIGIKAKVFSPITPFVSTYYNYRDHRKILVIDNKVAFNGGINLADEYINQIERFGYWKDTAVMLEGEGVASFTLMFLQMWSTTNKDYEFAPYLTQNFHEIVANGYVIPYSDSPLDHEKVGENV | not soluble |
| MIIDDIINKIKSSNKIAISFHISPDGDSIGSSLGLLNGLRSIGKETYILSKEVVPESFEFLNFAREIDGNHFEVEDNTDLLITLDCGNIERLNFDTSDMISEDKKYTVINIDHHVTNDSFGDLNYINTKAASVGEIVYDLLSKMNISIDRTIAACLYTSILTDTGSFRFSNTTLNTHVVAGNLISTGLDFSEIHRKIFDNKKFEALKLQALVLNDMYLTFNNKLCVMKVTHDFIEKANAEDVDTGDLVSLGLKVNTAEVCMLLKEKDDCIKVSLRSKSYVDVRKIAEKFGGGGHIRAAGLSINSNILDAEKMILSEIQGELLEHHHHHH | not soluble |
| MGSDKIHHHHHHMNHFFVEFGEYEASVCEWGDKSNPQIICFHGLGSTKLSFIEVAELLKDSYHIVSFDLPGHGKTQNFEKDEDYGASHLTNWVVALLEHIGKETFHIVAHSWGASVALHYAAECPEKVNKIVLLDGGYHHGKMNADYFANLYKDAKEGECPPRSLEEEITHYENDFDEYIFDSKETFIQSEKLAYSRWSPLLERAVYDLMREEDSKVKWHATGDTARGVIKFQYTVYKTLKPHKIKSDILLLYCDLPDNYLEIRELQIVEFKKRINITTKLYKDTGHLMHWDRPEEIAEDVLHWFK | not soluble |
| MNNSEQLIALKESETAFLKYFNKADYELVDFSVVEKLDWKQLNHEDLQQMGERNFWQHEHQIYALRNDFTDQLLRYYSMYPTAATKVAYTGLIIRNNEAAVQVGLENYAPSLANVQQSLKLFIQFIQQQLRDNVHFVVLGHYQLLDALLDKSLQTPDILSMIEERNLSGLVTYLSTEHPIVQILKENTQQQLNVLEHYIPNDHPALVELKIWERWLHTQGYKDIHLDITAQPPRSYYTGLFIQCHFAENESRVLTGGYYKGSIEGFGLGLTL | soluble |
